# Assay results published in the supplement of paper PMC12764529.
# ± gives the half width of the 95% confidence interval.
# Experiment: folding stability dG unfold from trypsin proteolysis; higher = more stable
# Summary of the method: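 Designed mini-proteins (under 80 residues, no cysteine) in a PA-tagged cDNA display construct were digested with trypsin and chymotrypsin. Each protease was used at 11 concentrations (threefold dilutions) plus a no-protease condition, followed by sequencing. K50 was inferred by Bayesian fitting of sequencing counts, and unfolding free energy was derived against a sequence-predicted unfolded-state K50 and a shared folded-state K50, per protease or combined. Only designs with AlphaFold2 dimer inter-PAE above 15 were kept.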
row,Sequence,folding stability dG unfold
1,SAGGMKLKPVKEGEEIEIELEIVDKETKKVYKVKAKITVVKDKETKEYYVKIEIENPETGEKYTFLLKSAGG [r13_262_TrROS_Hall],2.17 ± 0.13 kcal/mol
2,SAGGKLIIVIEVNGETIEVDLEEAETLEEAIQKVLDEIRERFPEIGTVRIKVFDEKGKLIKEIEIKLKSAGG [r13_257_TrROS_Hall],3.25 ± 0.12 kcal/mol
3,MVITPEEVAEMLGVSPEELAALPLEELAQRILEVLPAGVATSVTVERDPARGTTTITVTLSDGKNIDVTLES [r1_340_JUSTAS],4.41 ± 0.33 kcal/mol
4,SAGGSAKTVSIWIPDDLPNMPIEELIKEVMKAFPPGDEIKDIDVEPWPNGGYMYTFTVNGKEVIIWSAGGSA [r15_451_TrROS],1.29 ± 0.043 kcal/mol
5,SAGGSAGGSMKKIKIEVYNKDGSKTELPLSEILKLYDFDAEEIKKFLEKLFPKDVKFKIEIEGSAGGSAGGS [r12_399_TrMRF],1.33 ± 0.061 kcal/mol
6,SAGGSAGGSLKPGQPYIMIRIKIQHPNGNTRTFNIMVPWNDIPQILDFLESHGFKIKDIEIFPSAGGSAGGS [r12_986_TrROS],3.94 ± 0.21 kcal/mol
7,SAGGSAGGSAGGKDPYLALKTVRVRLVRDYLLGDKPVKTELIEEADVPVLIVFEPEELLSAGGSAGGSAGGS [r10_492_TrMRF],0.0714 ± 0.069 kcal/mol
8,SAGGEVKPGEEVEVEVLVLVRGEDGELYLVRVKMRFRVKEDGTVEMEVEVEVVRVPLSEEELKALLEASAGG [r13_544_TrROS_Hall],4.43 ± 0.14 kcal/mol
9,SAGGYKITIPAMFDTPEDALDQVREIARSLGYRITDIKNVEVHKHEDNGMVMVEATIKIEPLPKGQLSAGGS [r16_155_TrROS],1.77 ± 0.042 kcal/mol
10,SMPLPFEATVTVPVRDEETGETYTVTVKVEAVNPAVPRPLPDGSIEYEPIPLETVLEIVEKAAEELAKALSA [r9_698_TrMRF],1.27 ± 0.074 kcal/mol
11,SAGGLKEIAKQLGPGADKVEIEWEPQPHDDMEMYRWKIRVKNPNNGKKRKLEVSIMYDPNGNIRSIMISAGG [r13_358_TrROS],1.85 ± 0.12 kcal/mol
12,SAGGSAGGSAHKITITLPNGNPPEIVVEFETEEEAKEKAEEIIKKLEEEGYPKENLTVTIEKESAGGSAGGS [r12_295_JUSTAS],1.87 ± 0.076 kcal/mol
13,SAGGMETIELEIEITDEDGNTYRIRVTIERKDGKLVIKIEVEAETPEERERARELAEELARRLEEELSAGGS [r8_416_TrROS_Hall],4.1 ± 0.19 kcal/mol
14,SAGGSAGGSAGGSMSSTVTTTLVEVGPPNGKRVLVRRTTTTFPDGSVTTTVTVLSTTIASAGGSAGGSAGGS [r4_496_JUSTAS],1.84 ± 0.027 kcal/mol
15,SAGGSAGGNKSYTVIIRFPMKRKEDPDGEDKKPRPVTIEYTVKSPEDANELKNKLKDNGAEIVPSAGGSAGG [r6_141_TrROS],0.263 ± 0.15 kcal/mol
16,SAGGSAGGSSKNGKPKPTIKVEMPDKPGPHEIPIPESDPDEAKTLAEELAQKWPGVPVRIEPTSAGGSAGGS [r12_601_TrROS],-0.293 ± 0.1 kcal/mol

row,Sequence,folding stability dG unfold
1,SAGGPGFQRYPYTLELPDGRKITVEYWRMGDNPYVQIDIRHDGEPLGTIHVPVPSPDQIEDAAKDIISAGGS [r16_55_TrROS],1.18 ± 0.057 kcal/mol
2,SAGGPLTLEFTLPNGDEVGDVTVEPLPDDSYIVTVVAEDKDRPGVYYVSLVRIPPTDRTLEVVSGPVYSAGG [r13_370_TrMRF],1.12 ± 0.02 kcal/mol
3,SAGKVKLTIMIHPMRKNGKPRYYVMVKIEIPGGPKAEIMFPFDSPEQAKNLLEDLGLKVEPEDISIMRWSAG [r5_233_TrROS],1.89 ± 0.022 kcal/mol
4,SAGGSAGGIKEILKEARENPENAESVTIRIPMEVPVTRYDPDNGEPETHPHPVPGEITIPPDDLSAGGSAGG [r6_560_TrROS],0.435 ± 0.019 kcal/mol
5,SMKVYVKVLPPEYAVAYIYTDKKYEIPIPTTDLEEARAQIEEIVNEIEKRTGVKAEVEITEVAPDTKIPLSA [r9_786_JUSTAS],0.182 ± 0.15 kcal/mol
6,SAGGMEEIVKALPPEAGVVEIESEPLPLEDSILRRYRLRVYNPATGKWEELEVLIEYDKDGNIRRIVASAGG [r13_358_TrMRF],2.5 ± 0.043 kcal/mol
7,SAGGSAGGSAGGYLEAPIVIKIEFQIYDPDDGDPIATYEHTIMIPIEIELPPPPDPDNDSAGGSAGGSAGGS [r10_50_TrROS],1.97 ± 0.21 kcal/mol
8,SAGGSAGGSMEVTYDEETGELTVRIEVDGKTLTLKFKSIEDLKAALEKLGIDVDDVKIVEIEPSAGGSAGGS [r12_834_TrROS_Hall],4.18 ± 0.3 kcal/mol
9,SAGGSLSNVTPLGTTPVTLPGSTVTITVYKSDTPGVVYVKIEYPETGVEKVRVLSPEELEKVIEELLSAGGS [r8_469_JUSTAS],2.69 ± 0.071 kcal/mol
10,SAGGSSIKVTITDKNGNEYEIEIPSSLSLEEAKEKVKEYLEKKGYKVESITVENLPPGEAEIKVLKSAGGSA [r2_148_JUSTAS],0.0509 ± 0.059 kcal/mol
11,STLPPGATRTFEFTDPATGKKITVTLTRLPDGTVRVTLTTTDPATGKTTTETFTLPGETLEALLALVEESSA [r9_618_JUSTAS],4.28 ± 0.22 kcal/mol
12,SAGMPVITTTEELPGGLTVTTTTYPPGDTTTTVTSPEGNVTTTTTTTTPTPTPTTTTTTTTTTTPVPPASAG [r5_944_JUSTAS],1.56 ± 0.14 kcal/mol
13,SAGGSAGGSAGGGPDATPVTTTYVDLNLTPVSTETDPETGAVTVTYKLPGETITVTLPASAGGSAGGSAGGS [r10_962_JUSTAS],-0.629 ± 0.13 kcal/mol
14,SAGGSAGGSAGGSDKGQPRVEIPMPFFMPNPNYVIRITMEIDLDPNGQIREIDVEVYKFSAGGSAGGSAGGS [r4_75_TrROS],3.21 ± 0.096 kcal/mol
15,SAGGSAGGSKKKKVIEIKISEEELKKLGLTKEEIAKKLAEKFPNIKKNVRIEKNKDGTLKIYVSAGGSAGGS [r12_50_TrROS_Hall],1.22 ± 0.072 kcal/mol
